Assay results: PMC8056390

Columns and labels:
[1] = molecular target: AmtB with the C312T mutation (trimeric ammonia channel from Escherichia coli) (Escherichia coli) (UniProt P69681); assay: native MS
[2] = molecular target: GlnK with Y51F mutation (UniProt P0AC55); assay: native MS

| stoichiometry N [1] | stoichiometry N [2] | Substance |
| --- | --- | --- |
| 3 | – | AmtB with the C312T mutation (trimeric ammonia channel from Escherichia coli) (from UniProt P69681 23-428) (natural protein) |
| – | 3 | GlnK with Y51F mutation (from UniProt P0AC55 1-112) (natural protein) |
